In US20030148956A1 (PROCTER AND GAMBLE, published 2003):
Ends that are not written are not given here.

T1: corticotropin releasing factor 2 receptor
T1 sequence (Q13324 whole entry, species assumed, looked up): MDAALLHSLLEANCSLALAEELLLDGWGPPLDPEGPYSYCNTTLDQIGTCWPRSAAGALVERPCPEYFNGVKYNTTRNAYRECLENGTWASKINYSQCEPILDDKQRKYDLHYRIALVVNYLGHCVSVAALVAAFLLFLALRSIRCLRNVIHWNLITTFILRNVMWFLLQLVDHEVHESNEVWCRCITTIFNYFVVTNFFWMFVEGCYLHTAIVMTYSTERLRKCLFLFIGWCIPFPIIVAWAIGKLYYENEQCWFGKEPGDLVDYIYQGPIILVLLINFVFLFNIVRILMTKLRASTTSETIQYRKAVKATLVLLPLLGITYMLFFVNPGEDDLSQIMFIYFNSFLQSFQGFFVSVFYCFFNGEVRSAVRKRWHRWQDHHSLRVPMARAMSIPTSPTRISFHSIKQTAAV


Key:
[1] = target: corticotropin releasing factor 1 receptor; experiment: cell-based or functional assay
[2] = target: T1, corticotropin releasing factor 2 …; experiment: cell-based or functional assay

Binder | CRF1R EC50 [1] [nM] | CRF1R Emax % [1] [%] | CRF2R EC50 [2] [nM] | CRF2R Emax % [2] [%]
ZGPPISIDLSLELLRKMIEIEKQEKEKQQAANNRLLLDTI (C-terminal amide) [SEQ ID NO 355] | 18 | 100 | 6.03 | 95
IVLSLDVPIGLLQILLEKAAAEAEAAAKAAQEQILAHV-NH2 [SEQ ID NO 366] | 1000 | 9 | 100 | 46
IVLSLDVPIGLLQILLEQARARAAREQATTNARILARVM-NH2 [SEQ ID NO 356] | 1000 | – | 83 | –
IVLSLDVPIGLLQILLEQARHAAAHAAAHAQAHILAHV-NH2 [SEQ ID NO 367] | 1000 | 6 | 100 | 18
IVLSLDVPIGLLQILLEQARARAAREQATTNARILARVM-NH2 [SEQ ID NO 368] | 1000 | – | 50.4 | –
ZGPPISIDLPFQLLRILIEIEKQEKEKQQAANNALLLAT (C-terminal amide) [SEQ ID NO 358] | 99 | 100 | 5.56 | 100
IVLSLDVPIGLLQILLEQARHAHAHAHAHAQAHILAHV-NH2 [SEQ ID NO 369] | 1000 | 4 | 100 | 18
ZGPPISIDLPFQLLRKVIEIEKQEKEKQQATTNARLLDRV (C-terminal amide) [SEQ ID NO 351] | 1000 | 85.7 | 12.9 | 97.4
ZGPPISIDLPLYLLRKMIEIEKQEKEKQQATTNARILARV (C-terminal amide) [SEQ ID NO 353] | 230 | 92.2 | 4.75 | 89.9
ZGPPISIDLPFQLLRKAIEIEKQEKEKQQATTNARLLDRV (C-terminal amide) [SEQ ID NO 363] | 1000 | 20 | 25.1 | 100
IVLSLDVSIGLLQILLEQARARAAREQATTNARILARV-NH2 [SEQ ID NO 370] | 1000 | 33 | 51 | 75
IVLSLDVPIHLLQILLEQARARAAREQATTNARILARV-NH2 [SEQ ID NO 371] | 1000 | 22 | 6.62 | 97
ZGPPISIDLPFQLLRKVIEIEKQEKEKQQAANNALLLATI (C-terminal amide) [SEQ ID NO 352] | 780 | 82.6 | 8.26 | 83.7
ZGPPISIDLPFQLLRKAIEIEKQEKEKQQAANNALLLATI (C-terminal amide) [SEQ ID NO 364] | 1000 | 27 | 13.2 | 100
ZGPPISIDVPYWLLRKVIEIEKQEKEKQQAANNARLLDTI (C-terminal amide) [SEQ ID NO 372] | 1000 | 13 | 14.2 | 100
ZGPPISIDVPYQLLRKVIEIEKQEKEKQQAANNARLLDTI (C-terminal amide) [SEQ ID NO 374] | 1000 | 11 | 15.8 | 91

Binder | CRF1R EC50 [1] [nM] | CRF1R Emax % [1] [%] | CRF2R EC50 [2] [nM] | CRF2R Emax % [2] [%]
ZGPPISIDLPFQLLREVIEIEKQEKEKQQAANNALLLATI (C-terminal amide) [SEQ ID NO 359] | 230 | 100 | 23.1 | 100
ZGPPISIDVPLQLLRKVIEIEKQEKEKQQAANNARLLDTI (C-terminal amide) [SEQ ID NO 380] | 1000 | 16 | 19 | 100
ZGPPISIDVPYYLLRKVIEIEKQEKEKQQAANNARLLARI (C-terminal amide) [SEQ ID NO 378] | 1000 | 36 | 14.9 | 100
ZGPPISIDVPYHLLRKVIEIEKQEKEKQQAANNARLLARI (C-terminal amide) [SEQ ID NO 377] | 1000 | 25 | 19.2 | 83
ZGPPISIDVPYHLLRKVIEIEKQEKEKQQAANNARLLDTI (C-terminal amide) [SEQ ID NO 376] | 1000 | 8 | 52.5 | 100
ZGPPISIDVPLQLLRKVIEIEKQEKEKQQAANNARLLARI (C-terminal amide) [SEQ ID NO 381] | 1000 | 27 | 12.7 | 99
ZGPPISIDLPFQLLRVLIEIEKQEKEKQQAANNALLLATI (C-terminal amide) [SEQ ID NO 361] | 149 | 100 | 6.37 | 99
ZGPPISIDVPIYLLRKVIEIEKQEKEKQQAANNARLLARI (C-terminal amide) [SEQ ID NO 379] | 1000 | 8 | 70.5 | 94
ZGPPISIDVPYWLLRKVIEIEKQEKEKQQAANNARLLARI (C-terminal amide) [SEQ ID NO 373] | 1000 | 9 | 11.5 | 100
ZGPPISIDLPFQLLRKIIEIEKQEKEKQQAANNALLLATI (C-terminal amide) [SEQ ID NO 362] | 386 | 100 | 4.39 | 100
ZGPPISIDLPFQLLRKAIEIEKQEKEKQQAANNALLLDTI (C-terminal amide) [SEQ ID NO 365] | 1000 | 21 | 23.4 | 94
ZGPPISIDLPFQLLRKLIEIEKQEKEKQQAANNALLLATI (C-terminal amide) [SEQ ID NO 357] | 331 | 100 | 6.44 | 100
ZGPPISIDLPFQLLRLLIEIEKQEKEKQQAANNALLLATI (C-terminal amide) [SEQ ID NO 360] | 157 | 100 | 6.12 | 93
ZGPPISIDVPYQLLRKVIEIEKQEKEKQQAANNARLLARI (C-terminal amide) [SEQ ID NO 375] | 1000 | 22 | 11.5 | 100
Ac-IVLSLDVPIGLLQILLEQARARAAREQATTNARILARV-NH2 [SEQ ID NO 354] | 1000 | 13.4 | 6.48 | 100
